In patent US20170129926A1 (ABCLON, published 2017):
Read-outs that look alike come from different tables or passages of the source.

What was measured:
Assay in all cases: cell-based or functional assay
[1] = target: T1, cell surface IL-6 receptor (TF-1 cells) (human, UniProt P08887 20-468)
T1 sequence (looked up): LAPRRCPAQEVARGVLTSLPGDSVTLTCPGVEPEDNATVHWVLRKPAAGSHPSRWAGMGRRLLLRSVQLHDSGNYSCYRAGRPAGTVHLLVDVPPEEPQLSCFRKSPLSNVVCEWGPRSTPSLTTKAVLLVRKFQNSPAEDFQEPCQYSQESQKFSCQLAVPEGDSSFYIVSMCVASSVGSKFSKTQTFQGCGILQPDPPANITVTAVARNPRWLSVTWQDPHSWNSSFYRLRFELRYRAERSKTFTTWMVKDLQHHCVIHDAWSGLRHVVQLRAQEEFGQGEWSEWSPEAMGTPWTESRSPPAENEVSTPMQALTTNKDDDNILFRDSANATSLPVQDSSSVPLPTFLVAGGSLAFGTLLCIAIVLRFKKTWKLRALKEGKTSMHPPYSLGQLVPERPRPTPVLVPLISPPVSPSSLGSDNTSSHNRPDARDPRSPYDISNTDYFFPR

human IL-6Rα = target: T2, human IL-6Rα (human, UniProt P08887 20-358)
T2 sequence (looked up): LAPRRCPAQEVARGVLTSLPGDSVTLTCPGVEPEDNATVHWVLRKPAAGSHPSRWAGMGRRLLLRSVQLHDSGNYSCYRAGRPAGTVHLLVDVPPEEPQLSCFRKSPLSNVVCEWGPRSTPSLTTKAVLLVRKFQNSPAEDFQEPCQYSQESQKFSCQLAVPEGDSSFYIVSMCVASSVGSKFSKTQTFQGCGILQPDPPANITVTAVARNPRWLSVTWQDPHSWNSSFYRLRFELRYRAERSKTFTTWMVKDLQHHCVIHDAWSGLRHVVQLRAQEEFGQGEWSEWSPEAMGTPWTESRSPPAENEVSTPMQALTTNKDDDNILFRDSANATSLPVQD

[2] = target: T1, cell surface IL-6 receptor (TF-1 cells); remark: listed apart in the source

B1: tocilizumab (antibody, V domains shown)
VH: QVQLQESGPGLVRPSQTLSLTCTVSGYSITSDHAWSWVRQPPGRGLEWIGYISYSGITTYNPSLKSRVTMLRDTSKNQFSLRLSSVTAADTAVYYCARSLARTTAMDYWGQGSLVTVSS
VL: DIQMTQSPSSLSASVGDRVTITCRASQDISSYLNWYQQKPGKAPKLLIYYTSRLHSGVPSRFSGSGSGTDFTFTISSLQPEDIATYYCQQGNTLPYTFGQGTKVEIKR
- IC50, IL-6 dependent growth of TF-1 cells [1]: 300 pM
- IC50, IL-6 trans-signaling (MCP-1 secretion by HUVECs) (human IL-6Rα): ~5000 pM
- IC50, IL-6 dependent growth of TF-1 cells [2]: 410 pM
